# Measured values from patent publication US20240000957A1 (published 2024).
# T1: Human EphA3 Fc fusion (Human, UniProt P29320 21-541, limits assumed)
# T1 construct: SPR; R&D Systems 6444-A3
# T1 sequence (looked up): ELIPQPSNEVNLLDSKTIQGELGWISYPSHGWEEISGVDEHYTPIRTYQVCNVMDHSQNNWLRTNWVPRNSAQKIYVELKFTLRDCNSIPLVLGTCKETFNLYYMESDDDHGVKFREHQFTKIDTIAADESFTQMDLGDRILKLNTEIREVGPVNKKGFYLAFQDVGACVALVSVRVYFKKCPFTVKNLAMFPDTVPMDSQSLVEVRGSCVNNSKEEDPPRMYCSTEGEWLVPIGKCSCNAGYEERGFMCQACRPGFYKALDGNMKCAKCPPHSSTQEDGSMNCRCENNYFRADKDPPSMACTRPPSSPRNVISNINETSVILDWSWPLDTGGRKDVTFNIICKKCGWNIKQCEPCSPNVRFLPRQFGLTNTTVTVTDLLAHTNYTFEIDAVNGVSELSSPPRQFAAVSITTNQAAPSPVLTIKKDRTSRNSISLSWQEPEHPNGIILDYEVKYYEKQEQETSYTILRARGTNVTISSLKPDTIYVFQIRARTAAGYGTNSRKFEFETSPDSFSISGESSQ
# T2: Human EphA6 Fc fusion (Human, UniProt Q9UF33 23-550, limits assumed)
# T2 construct: SPR; R&D Systems 5606-A6
# T2 sequence (looked up): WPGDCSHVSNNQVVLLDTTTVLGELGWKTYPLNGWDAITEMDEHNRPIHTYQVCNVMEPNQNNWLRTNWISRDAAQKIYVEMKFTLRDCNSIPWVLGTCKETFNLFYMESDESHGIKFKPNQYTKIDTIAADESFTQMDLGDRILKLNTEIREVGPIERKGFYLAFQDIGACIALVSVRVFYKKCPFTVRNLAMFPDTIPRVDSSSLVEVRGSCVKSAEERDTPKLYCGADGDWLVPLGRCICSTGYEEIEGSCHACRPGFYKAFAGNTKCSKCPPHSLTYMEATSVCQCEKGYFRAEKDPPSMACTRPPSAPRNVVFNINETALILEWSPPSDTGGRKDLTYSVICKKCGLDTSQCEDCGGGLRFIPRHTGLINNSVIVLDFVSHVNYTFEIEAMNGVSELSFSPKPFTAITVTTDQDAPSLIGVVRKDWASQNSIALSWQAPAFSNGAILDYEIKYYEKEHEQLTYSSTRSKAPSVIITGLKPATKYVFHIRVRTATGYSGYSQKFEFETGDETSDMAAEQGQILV
# T3: Mouse EphA3 Fc fusion (Mouse, UniProt P29319 21-540)
# T3 construct: SPR; Sino Biologics 51122-M02H
# T3 sequence (looked up): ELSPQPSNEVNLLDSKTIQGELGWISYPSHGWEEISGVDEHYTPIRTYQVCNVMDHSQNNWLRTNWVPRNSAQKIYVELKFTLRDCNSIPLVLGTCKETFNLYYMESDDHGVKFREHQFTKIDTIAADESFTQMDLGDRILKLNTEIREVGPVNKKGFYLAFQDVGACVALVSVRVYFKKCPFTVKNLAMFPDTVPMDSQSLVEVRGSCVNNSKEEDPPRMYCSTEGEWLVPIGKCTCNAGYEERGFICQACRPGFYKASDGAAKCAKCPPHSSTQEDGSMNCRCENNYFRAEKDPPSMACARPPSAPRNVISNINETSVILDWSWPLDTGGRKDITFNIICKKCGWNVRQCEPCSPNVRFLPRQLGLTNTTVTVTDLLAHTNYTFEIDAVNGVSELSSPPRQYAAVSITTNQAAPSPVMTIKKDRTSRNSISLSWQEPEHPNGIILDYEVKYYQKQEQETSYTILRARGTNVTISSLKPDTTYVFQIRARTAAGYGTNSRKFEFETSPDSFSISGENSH
# T4: Rat EphB1 Fc fusion (Rat, UniProt P09759 18-540, limits assumed)
# T4 construct: SPR; R&D Systems 1596-B1
# T4 sequence (looked up): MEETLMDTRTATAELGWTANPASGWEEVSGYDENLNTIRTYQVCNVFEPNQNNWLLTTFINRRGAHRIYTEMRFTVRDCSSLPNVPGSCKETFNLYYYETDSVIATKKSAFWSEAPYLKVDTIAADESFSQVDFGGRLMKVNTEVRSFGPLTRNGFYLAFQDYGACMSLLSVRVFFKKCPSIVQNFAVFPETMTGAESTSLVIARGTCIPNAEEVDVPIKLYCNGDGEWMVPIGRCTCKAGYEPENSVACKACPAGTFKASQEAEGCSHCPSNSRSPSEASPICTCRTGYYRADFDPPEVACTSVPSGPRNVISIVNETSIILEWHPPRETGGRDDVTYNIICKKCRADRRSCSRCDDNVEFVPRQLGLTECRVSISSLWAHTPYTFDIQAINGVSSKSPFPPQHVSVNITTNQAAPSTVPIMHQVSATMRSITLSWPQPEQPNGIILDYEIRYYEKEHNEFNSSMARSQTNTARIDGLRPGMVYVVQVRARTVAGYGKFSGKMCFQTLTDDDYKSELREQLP
# Columns and labels:
# [1] = biological target: T1, Human EphA3 Fc fusion; assay: SPR
# [2] = biological target: T2, Human EphA6 Fc fusion; assay: SPR
# [3] = biological target: T3, Mouse EphA3 Fc fusion; assay: SPR
# [4] = biological target: T5, Mouse EphA4 Fc fusion (Mouse, UniProt Q03137 20-547); assay: SPR
# T5 construct: SPR; Sino Biologics 50575-M02H
# [5] = biological target: T4, Rat EphB1 Fc fusion; assay: SPR
# [6] = biological target: T6, Human EphA2 (Ecto), C-terminal polyHis (Human, UniProt P29317 24-537); assay: FP competition vs Reference Compound C (Study 2)
# T6 construct: extracellular domain; R&D systems 3035-A2 or in-house
# [7] = biological target: T7, Mouse EphA2 (Ecto) (Mouse, UniProt Q03145 26-538); assay: FP competition vs Reference Compound C (Study 2)
# T7 construct: extracellular domain; Fluorescence polarisation assays; not shown: Fc fusion (R&D Systems 639-A2) or C-terminal polyHis (Sino Biological 50586-M08H)
# [8] = biological target: T8, Rat EphA2 (ligand binding), C-terminal polyHis (Rat); assay: FP competition vs Reference Compound C (Study 2)
# T8 construct: In-house
# T5 sequence (Q03137 20-547 limits assumed): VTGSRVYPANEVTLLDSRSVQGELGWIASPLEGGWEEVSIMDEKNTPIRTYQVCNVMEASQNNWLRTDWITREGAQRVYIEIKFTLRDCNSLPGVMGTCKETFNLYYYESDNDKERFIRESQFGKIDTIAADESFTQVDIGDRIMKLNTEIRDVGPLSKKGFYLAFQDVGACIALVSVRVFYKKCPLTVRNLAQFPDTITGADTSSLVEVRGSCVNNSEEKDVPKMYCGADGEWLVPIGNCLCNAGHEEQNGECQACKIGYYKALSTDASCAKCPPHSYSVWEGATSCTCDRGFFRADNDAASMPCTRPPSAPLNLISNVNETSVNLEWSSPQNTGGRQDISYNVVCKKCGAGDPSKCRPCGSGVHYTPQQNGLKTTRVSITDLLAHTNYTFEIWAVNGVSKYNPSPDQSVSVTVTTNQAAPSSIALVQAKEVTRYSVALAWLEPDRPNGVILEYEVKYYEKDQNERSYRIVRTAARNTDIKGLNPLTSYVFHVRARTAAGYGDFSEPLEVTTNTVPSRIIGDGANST
# T7 sequence (Q03145 26-538): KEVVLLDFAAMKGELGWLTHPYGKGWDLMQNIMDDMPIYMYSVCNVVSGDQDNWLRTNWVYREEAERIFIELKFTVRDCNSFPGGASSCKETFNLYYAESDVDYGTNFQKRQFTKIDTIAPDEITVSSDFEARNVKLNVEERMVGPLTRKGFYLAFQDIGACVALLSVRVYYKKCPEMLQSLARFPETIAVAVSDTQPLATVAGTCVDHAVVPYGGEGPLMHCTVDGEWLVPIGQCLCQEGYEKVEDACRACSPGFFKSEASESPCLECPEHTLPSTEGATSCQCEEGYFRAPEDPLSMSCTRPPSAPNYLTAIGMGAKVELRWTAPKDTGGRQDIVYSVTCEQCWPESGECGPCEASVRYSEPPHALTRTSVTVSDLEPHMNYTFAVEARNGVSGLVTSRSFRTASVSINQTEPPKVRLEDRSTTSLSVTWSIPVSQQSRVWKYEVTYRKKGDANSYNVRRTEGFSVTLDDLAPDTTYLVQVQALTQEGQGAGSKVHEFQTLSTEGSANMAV
# T6 sequence (P29317 24-537): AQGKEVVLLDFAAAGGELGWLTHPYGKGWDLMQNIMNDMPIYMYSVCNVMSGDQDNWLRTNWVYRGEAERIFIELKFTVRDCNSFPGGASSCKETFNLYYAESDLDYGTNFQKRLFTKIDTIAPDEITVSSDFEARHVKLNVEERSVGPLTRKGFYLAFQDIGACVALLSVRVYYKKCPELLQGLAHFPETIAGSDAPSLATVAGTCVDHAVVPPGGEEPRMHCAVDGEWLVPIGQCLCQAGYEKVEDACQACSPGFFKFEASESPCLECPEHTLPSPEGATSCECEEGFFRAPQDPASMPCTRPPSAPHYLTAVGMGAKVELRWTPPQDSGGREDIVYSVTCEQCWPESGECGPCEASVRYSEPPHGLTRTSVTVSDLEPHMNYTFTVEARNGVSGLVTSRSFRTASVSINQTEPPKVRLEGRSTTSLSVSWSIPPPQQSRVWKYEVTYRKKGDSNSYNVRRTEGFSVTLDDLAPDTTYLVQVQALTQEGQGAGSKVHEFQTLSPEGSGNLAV
Binder,binding result [1],binding result [2],binding result [3],binding result [4],binding result [5],Ki [6],Ki [7],Ki [8]
"AXDCPLVNPLCLHPGWTC (not fully specified; as BCY6014 (N-terminal (β-Ala)-Sar10; HArg; TATA scaffold on the 3 Cys) + ValCit-MMAE, Bicycle drug conjugate (BDC)) [BCY6033]",no binding,no binding,no binding,no binding,no binding,9.9 nM,34.2 nM,13.4 nM
"AXDCPLVNPLCLHPGWTC (not fully specified; as BCY6014 (N-terminal (β-Ala)-Sar10; HArg; TATA scaffold on the 3 Cys) + DM1-SS(SO3H)-, Bicycle drug conjugate (BDC)) [BCY6082]",no binding,no binding,no binding,no binding,no binding,10.5 nM,34.1 nM,13.9 nM
